In paper PMC9224490, “PLAAT1 Exhibits Phosphatidylcholine:Monolysocardiolipin Transacylase Activity” (International Journal of Molecular Sciences, 2022):

Columns and labels:
[1] = substrate: CCCCCCCCCCCCCCCCCC(=O)OC[C@H](COP(=O)([O-])OCC[N+](C)(C)C)OC(=O)CCCCCCCCCCCCCCCCC; assay: radiochemical PC:MLCL transacylase assay, TLC and scintillation counting, Lineweaver-Burk; format: biochemical, Mus musculus; conditions: labelled compound (3H), acyl donor 0-200 μM, acceptor MLCL 100 μM (methods text: 40 μM final), pH 8, 37 °C, 2 mM DTT, 0.1% Nonidet P-40, enzyme on anti-HA beads, apparent
Source text: (§1) radiochemical PC:MLCL transacylase assay, TLC and scintillation counting, Lineweaver-Burk on PLAAT1

[2] = substrate: CCCCCCCC/C=C\CCCCCCCC(=O)OC[C@H](COP(=O)([O-])OCC[N+](C)(C)C)OC(=O)CCCCCCC/C=C\CCCCCCCC; assay: as above; format: biochemical, Mus musculus; conditions: labelled compound (3H), acyl donor 0-200 μM, acceptor MLCL 100 μM (methods text: 40 μM final), pH 8, 37 °C, 2 mM DTT, 0.1% Nonidet P-40, enzyme on anti-HA beads, apparent
Source text: as §1

B1: PLAAT1 (Mus musculus) (protein)
chain: MAVNDCFSLTYPHNPHPGDLIEVFRPCYQHWALYLGDGYVINIAPIDGIRSSFTSAKSVFSTKALVKMQLLKDVVGNDTYRINNKYDTTYPPLPVEEVIQRSEFPIGQEVAYDLLVNNCEHFVTLLRYGEGVSEQANRAIGTIGLVAAGIDIFTFLGLFPKRQRTKY
notes: complete coding region; C-terminal 6xHis, HA-tagged; adenoviral expression in HEK-293; immunopurified on anti-HA beads
Km [1]: 126 µM
Vmax [1]: 1.61 µmol/min/mg
Km [2]: 16 µM
Vmax [2]: 0.61 µmol/min/mg
